# Reference: patent US20060246541A1
# Molecular target: GPIIb/IIIa (integrin αIIbβ3)
# Assay: cell-based or functional assay
substance,measurement,value
native contortrostatin (from UniProt Q805F6 419-482) (ligand),"IC50, inhibition of ADP-induced platelet aggregation",0.06 µM
